Test results as given in PMC5915679.

Biological target: human Argonaute-2 (human) (UniProt Q9UKV8)
Assay: ITC

| Binder | Kd [nM] | fold lower affinity than without competitor (with 5 μM motif-2) [fold] | fold lower affinity than without competitor (with 10 μM motif-2) [fold] |
| --- | --- | --- | --- |
| TVDNGTSAWGKPIDSGPSWGEP [hGW182 (TNRC6A) hook motif] | 234 | 7 | 15 |
| VNRTDLDPRVLSNSGWGQTPIKQNTAWDTETSPRGE (domain or fragment) [hGW182 (TNRC6A) motif-1] | 118 |  |  |
